Test results reported in the supplement of paper PMC10567573.

B1: JUNB (parent)
chain: FVKALDDLHKMNHVTPPNVSLGAT

Variants of: B1
Assay: protein stability index of a GFP-peptide fusion (GPS, HEK-293T) (PSI 1-6); higher = more stable
Conditions: c terminus: a fixed tail appended
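Note: lentivirally expressed fusions sorted by FACS into six bins by GFP to DsRed ratio, PSI derived from sequencing read proportions per bin multiplied by bin number.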

Protein stability index: each site, then its substitutions
P16: R 1.6 | I 1.58 | T 2.34 | S 1.78 | Q 2.11 | A 1.94 | G 1.9 | D 1.76 | N 1.14 | F 2.55 | W 1.92 | L 1.53 | M 1.68 | Y 1.64 | H 1.81 | K 1.79 | C 2.48 | V 1.86 | E 2.55
D7: Q 1.7 | N 1.96 | W 2.24 | A 1.69 | M 2.62 | I 2.48 | K 1.8 | R 1.93 | F 2.71 | G 1.98 | C 2.15 | S 1.47 | P 3.02 | H 3.12 | E 1.57 | V 2.27 | T 2.16 | Y 2.2
N18: E 1.62 | R 3.67 | Y 1.73 | Q 2.49 | A 1.32 | S 2.61 | M 2.5 | L 1.93 | V 1.63 | W 2.86 | K 1.75 | F 2.41 | I 1.4 | G 1.73 | H 1.62 | D 1.73 | C 1.69 | T 1.47
N12: Y 3.14 | S 2.12 | I 1.67 | C 2.34 | A 2.14 | G 2.49 | R 1.56 | E 2.01 | Q 1.58 | M 1.65 | P 2.08 | K 1.55 | V 1.67 | H 2.57 | D 1.61 | T 1.8 | L 3.23 | F 1.74
K10: R 2.77 | T 2.21 | C 1.64 | Q 1.95 | L 1.72 | G 1.5 | S 2.11 | W 4.58 | M 1.72 | Y 2.63 | F 1.6 | I 2.35 | D 2.22 | N 2.07 | H 2.13 | V 1.48 | P 2.61 | E 2.98 | A 2.79
V19: W 3.57 | I 1.82 | Y 1.47 | R 1.9 | M 1.82 | Q 1.79 | N 1.98 | H 2.41 | S 1.63 | D 1.94 | T 1.56 | F 1.43 | K 1.39 | G 1.49 | P 1.44 | C 2.11 | E 1.67 | L 1.69 | A 1.77
D6: T 1.88 | Y 4.17 | Q 1.34 | M 2.54 | G 2.07 | I 2.58 | V 2.59 | R 1.59 | A 2 | C 4.16 | E 1.97 | K 2.39 | P 2.08 | N 2.83 | F 3.31 | W 3.45 | S 1.46 | H 1.57
K3: Y 1.73 | V 1.96 | S 2.72 | W 2.47 | T 2.02 | R 1.76
S20: Q 1.7 | I 1.11 | M 1.64 | D 1.72 | T 2.09 | N 1.96 | F 1.39 | A 3.1 | E 2.16 | V 1.77 | R 2.33 | H 1.81 | Y 3.04 | C 1.83 | W 3.23 | L 1.56 | P 2.12 | G 2.46 | K 2.81
H9: D 2.05 | S 2.57 | Y 1.54 | E 2.08 | L 1.44 | A 1.86 | C 2.04 | M 2.64 | F 3.03 | P 1.69 | W 4.16 | I 1.29 | R 1.66 | G 1.97 | V 1.79 | Q 1.34 | K 1.9 | N 1.72 | T 2.15
M11: N 2.01 | K 1.83 | T 2.06 | Q 2.63 | S 2.11 | P 1.4 | R 2.28 | Y 1.29 | C 2.31 | E 3.21 | I 2.26 | H 1.94 | D 2.29 | G 1.61 | A 2.29 | F 2.6 | L 1.7 | W 2.23 | V 1.7
V14: G 2.37 | Q 2.26 | Y 1.19 | M 1.51 | P 1.46 | C 2.3 | W 2.7 | K 1.53 | F 1.8 | E 1.93 | T 1.82 | H 1.78 | D 1.87 | S 1.43 | N 1.89 | R 1.84 | L 1.88 | I 1.82 | A 2.24
L8: P 2.31 | M 1.62 | G 2.26 | I 2.64 | T 2.46 | A 1.51 | C 1.77 | R 1.89 | S 2.39 | F 2.59 | N 1.93 | K 2.3 | V 1.74 | E 2.31 | H 2.26 | Y 1.52 | Q 1.68 | D 1.86
T15: V 1.6 | P 2.18 | S 1.92 | Q 2.06 | A 2.79 | E 1.45 | F 1.69 | H 2.12 | W 1.51 | R 2.24 | C 2.06 | Y 1.67 | I 1.59 | L 2.03 | M 2.3 | G 2.04 | D 1.9 | N 1.84 | K 2.09
L21: C 1.38 | F 2.09 | K 2.44 | I 1.9 | A 2.17 | D 2.51 | E 2.9 | H 1.74 | M 2.16 | G 2.54
A4: D 2.24 | T 2.34 | M 1.58 | G 2.68 | L 2.69 | N 1.66 | Y 2.85 | H 2.03 | S 2.03 | E 2.13 | F 1.15 | W 3.85 | P 2.6 | Q 1.94 | V 1.77 | I 2.12 | C 1.63 | K 1.58 | R 1.61
P17: V 1.71 | I 1.81 | K 2.64 | D 1.97 | M 2.35 | S 1.83 | E 1.48 | A 1.89 | R 1.44 | T 1.62 | Y 3.73 | H 1.89 | L 1.37 | Q 2.21 | C 2.08 | W 3.22 | G 1.56 | F 2.56 | N 1.8
H13: Q 2.08 | F 2.17 | P 1.75 | G 1.91 | N 1.54 | S 1.2 | E 3.33 | I 2.22 | Y 1.6 | R 2.4 | M 2.06 | L 2.56 | C 1.67 | D 1.92 | W 2.66 | V 1.75 | T 2.75 | K 1.74 | A 1.92
L5: W 3.57 | V 1.86 | P 2.2 | M 1.93 | G 1.99 | E 3.33 | K 2.27 | A 2.23 | F 2.1 | I 1.75 | Y 2.82 | Q 2.08 | T 2.22 | H 1.9 | N 2.38 | C 1.87 | S 1.72 | R 1.62 | D 2.72
